From IntAct's records for PubMed 17057713

B1: A-type potassium channel modulatory protein KCNIP1 (Homo sapiens), Q9NZI2 (parent)
chain: MGAVMGTFSSLQTKQRRPSKDIAWWYYQYQRDKIEDELEMTMVCHRPEGLEQLEAQTNFTKRELQVLYRGFKNECPSGVVNEDTFKQIYAQFFPHGDASTYAHYLFNAFDTTQTGSVKFEDFVTALSILLRGTVHEKLRWTFNLYDINKDGYINKEEMMDIVKAIYDMMGKYTYPVLKEDTPRQHVDVFFQKMDKNKDGIVTLDEFLESCQEDDNIMRSLQLFQNVM
partner: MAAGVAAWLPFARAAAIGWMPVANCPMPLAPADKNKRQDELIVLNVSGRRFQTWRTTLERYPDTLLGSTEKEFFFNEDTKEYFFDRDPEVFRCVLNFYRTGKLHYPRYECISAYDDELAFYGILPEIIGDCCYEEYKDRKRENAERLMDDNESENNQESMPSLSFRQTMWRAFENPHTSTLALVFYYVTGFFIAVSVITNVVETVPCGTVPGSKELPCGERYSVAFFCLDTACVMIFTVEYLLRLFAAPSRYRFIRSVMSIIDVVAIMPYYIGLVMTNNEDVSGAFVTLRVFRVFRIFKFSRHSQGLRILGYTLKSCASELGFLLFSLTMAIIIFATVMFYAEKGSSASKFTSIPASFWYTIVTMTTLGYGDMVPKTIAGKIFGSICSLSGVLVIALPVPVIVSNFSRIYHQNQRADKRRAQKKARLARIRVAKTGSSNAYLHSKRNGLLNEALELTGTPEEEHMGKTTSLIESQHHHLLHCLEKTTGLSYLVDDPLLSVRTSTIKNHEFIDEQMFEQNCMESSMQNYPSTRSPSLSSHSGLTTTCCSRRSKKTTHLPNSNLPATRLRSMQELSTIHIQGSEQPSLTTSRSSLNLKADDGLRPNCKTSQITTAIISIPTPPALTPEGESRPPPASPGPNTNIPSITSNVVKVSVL

Variants of: B1
Conditions: with kcnd3_rat Kcnd3, Q62897

effect of a mutation on the interaction	Variant
decreasing interaction strength	MGAVMGTFSSLQTKQRRPSKDIAWWYYQYQRDKIEDELEMTMVCHRPEGLEQLEAQTNFTKRELQVLYRGFKNECPSGVVNEDTFKQIYAQFFPHGDASTYAHYLFNAFDTTQTGSVKFEDFVTALSILLRGTVHEKLRWTFNLYAINKDGYINKEEMMDIVKAIYDMMGKYTYPVLKEDTPRQHVDVFFQKMAKNKDGIVTLDEFLESCQEDDNIMRSLQLFQNVM [D146A;D194A]
